{
  "source": "paper PMC7276988",
  "about": "“Cryo-EM Structure of the Fork Protection Complex Bound to CMG at a Replication Fork” (Molecular Cell, 2020)",
  "binders": {"B1": {"name": "Mrc1 (natural protein, S. cerevisiae, UniProt P25588 1-1096, looked up)", "chain": "MDDALHALSSLTAKKRTTTYKKVAVPILDENDNTNGNGPNDIDNPPELTGNGFLFANATLNRVKNRLEGKKAPEQNHNNGKDRSENSLPTQLISNLYDGGEELEKSEVKDNSYSEKNVSSSFTQTQRIPVSIQQDKVFNVPIHSVNDGKPTQLIKEDGLVNETSQALKTPLTTGRPGATQRIDSSGATSQTQPIKSIEPQSQIITTSSNHSNALSPKIPIIPTELIGTSPLFQSIQNRGPDTQMDVPPQTAHDEDKTQAIGIPQATHQEQKTQIDTVAQTLQDEVPHTLKIREIQSELASEDSKREKARNVEYKKPQKPIPTKKFFSKESFLADFDDSSSNEDDDIKLENAHPKPVQNDDELHENKSVELNLTDETRINEKRVPLLSSYANNLKREIDSSKCITLDLDSDSDEYGDDDMDSIKLSKDESVLPISQLSKATILNLKARLSKQNQKLSQRPNKSKDPKVDHNVLLNTLRKASRKQILDHQKEVIETKGLKLEDMAKEKEIVENLLEQEILRNKRIRQKEKRREKLEENDFQLNAHDSGSDSGSESSGFALSGNEIADYESSGSENDNRRESDSEKEDDEIILKQKKSHHVKHIINESDSDTEVEAKPKEKADESLPKRIAINLGHYGDNIGEDTDKFQETNVLDTQNIEEVMAERNTIENEVKDDVYVNEEADEAIRRQLIDKEKLQLKQKEKEHEAKIKELKKRGVTNFFEMEAEESEDEWHGIGGADGEGSDDYDSDLEKMIDDYSKNNFNPHEIREMLAAENKEMDIKMINKILYDIKNGGFRNKRAKNSLELELSDDDEDDVLQQYRLKRRELMRKRRLEIGDDAKLVKNPKSSAFFESMVEDIIEYKNPFGAEEEYNLDITSTATDLDTQDNSINVGDNTGNNEQKPVDQKNKKVIISEDFVQKSLSFLKSNNYEDFETDKELSRIQHGNDEAIEDLYTLKQNSSIKSFTNSQTDSTTSKTVNTIIDLEKRPEDEDEVENGDTSLVGVFKHPSIIKSFASRTDINDKFKEGNKTVKILKSYKTVGSSKASITYMGKTRKLIAPKRKTEGSHRYHHDHHNKKMKMKTKTKSNKLFESGQDSFDN", "notes": "Mrc1, S. cerevisiae; printed as a 125 kDa protein; The FLAG purification is told for the separately purified protein; source: S. cerevisiae, overexpressed at 20°C, purified (anti-FLAG M2, Superose 6)"}},
  "target": "T1, Cdc45-MCM-GINS (CMG) helicase (S. cerevisiae, UniProt P29469 1-868; P24279 1-971; P30665 1-933; P29496 1-775; P53091 1-1017; P38132 …)",
  "T1 construct": "Mcm2, S. cerevisiae, subunit of MCM in CMG; Mcm3, S. cerevisiae, subunit of MCM in CMG; Mcm4, S. cerevisiae, subunit of MCM in CMG; Mcm5, S. cerevisiae, subunit of MCM in CMG; Mcm6, S. cerevisiae, subunit of MCM in CMG; Mcm7, S. cerevisiae, subunit of MCM in CMG; Cdc45, S. cerevisiae, subunit of CMG; Psf1, S. cerevisiae, subunit of GINS in CMG; Psf2, S. cerevisiae, subunit of GINS in CMG; Psf3, …",
  "assay": "co-sedimentation; 10-30% glycerol gradient without cross-linker; 0.5 μM CMG with 1.5 molar excess of fork DNA, Csm3/Tof1 (or mutant), Ctf4 and Mrc1; 500 μM AMP-PNP, 3 mM Mg(OAc)2, 150 mM NaOAc, pH 7.5; 200,000g, 4°C, 2 h; silver-stained SDS-PAGE of fractions",
  "details": "both partners purified",
  "data": [
    {"binder": "B1", "values": [
      {"measurement": "stoichiometry N", "value": "~1", "unit": "Mrc1 per complex"}
    ]}
  ]
}
